The text below walks through data of patent US6428967 (University of Texas, dated 2002).

Assay [1] has as its target T1, Disabled-1 (Dab1), two-hybrid prey in pB42AD (UniProt P97318-2 1-555).
T1 sequence (looked up): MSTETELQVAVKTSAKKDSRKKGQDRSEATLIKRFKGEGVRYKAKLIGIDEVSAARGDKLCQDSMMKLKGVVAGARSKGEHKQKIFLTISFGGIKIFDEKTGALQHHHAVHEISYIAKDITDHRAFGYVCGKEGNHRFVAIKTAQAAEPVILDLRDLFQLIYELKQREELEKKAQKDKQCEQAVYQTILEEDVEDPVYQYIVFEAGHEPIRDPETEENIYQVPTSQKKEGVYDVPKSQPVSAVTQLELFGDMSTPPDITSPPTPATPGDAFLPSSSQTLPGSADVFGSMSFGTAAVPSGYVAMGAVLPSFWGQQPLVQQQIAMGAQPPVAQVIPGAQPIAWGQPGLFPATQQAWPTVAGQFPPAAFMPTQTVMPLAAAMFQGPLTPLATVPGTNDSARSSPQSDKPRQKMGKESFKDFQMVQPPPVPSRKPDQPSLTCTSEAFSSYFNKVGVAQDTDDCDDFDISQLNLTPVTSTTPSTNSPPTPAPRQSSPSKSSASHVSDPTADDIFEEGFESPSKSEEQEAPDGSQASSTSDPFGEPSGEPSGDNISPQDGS
Nature of the assay: yeast two-hybrid, LexA tail bait against B42AD-Dab1. The procedure: All LDL receptor family cytoplasmic tail LexA fusion proteins were constructed using the pLexA vector ([…] system, CLONTECH). […] PCR products were subcloned into the EcoRI and NcoI sites of pLexA for the Megalin and VLDL Receptor, and into EcoRI and BarnHI sites for the other receptors. […] All constructs were sequenced after cloning, and all bait vectors were tested for self-activation. Bait and prey vectors were cotransfected into yeast cells (leucine auxotrophic strain EGY48) using the LiAc method as described in the […] manual (CLONTECH). The two-hybrid assay used two reporters (LEU2 and lacZ) under the control of LexA operators. Cells were spread on selective plates (His-;Leu-;Trp-) and grown for 3 days. Single clones were grown on selective plates in patches and harvested after 2–3 days. To recover DNA from yeast, cells were resuspended in 50 μl STES (0.5M NaCl, 0.2M Tris-HCl pH 7.6, 0.01M EDTA, 1% SDS). Glass beads were added and the cells vortexed vigorously. After addition of 20 μl H2O and 60 μl phenol/chloroform cells were vortexed for 1 more minute and centrifuged (14,000×g, 5 min). The aqueous phase was collected and the DNA was precipitated with EtOH. DNA from positive clones was retransformed into DH5α and checked by DNA sequencing. Yeast mating was performed after transformation of LexA plasmids into the yeast strain YM4271 following the instructions in the […] manual (CLONTECH).
(§1) The ApoER2 tail was tested with (+) and without (−) its alternatively spliced insert. For Megalin and for LRP the complete tails and parts thereof containing a single NPxY motif were tested separately.

Another assay addresses T2, PSD-95 (mouse, UniProt Q62108 1-724).
T2 construct: Yeast two-hybrid prey clone; also called postsynaptic density-95; postsynaptic density protein PSD-95
Nature of the assay: yeast two-hybrid, LexA tail bait against prey. The procedure: (§2) PCR products were subcloned into the EcoRI and NcoI sites of pLexA for the Megalin and VLDL Receptor, and into EcoRI and BarnHI sites for the other receptors. […] All constructs were sequenced after cloning, and all bait vectors were tested for self-activation. Bait and prey vectors were cotransfected into yeast cells (leucine auxotrophic strain EGY48) using the LiAc method as described in the […] manual (CLONTECH). The two-hybrid assay used two reporters (LEU2 and lacZ) under the control of LexA operators. Cells were spread on selective plates (His-;Leu-;Trp-) and grown for 3 days. Single clones were grown on selective plates in patches and harvested after 2–3 days. To recover DNA from yeast, cells were resuspended in 50 μl STES (0.5M NaCl, 0.2M Tris-HCl pH 7.6, 0.01M EDTA, 1% SDS). Glass beads were added and the cells vortexed vigorously. After addition of 20 μl H2O and 60 μl phenol/chloroform cells were vortexed for 1 more minute and centrifuged (14,000×g, 5 min). The aqueous phase was collected and the DNA was precipitated with EtOH. DNA from positive clones was retransformed into DH5α and checked by DNA sequencing. Yeast mating was performed after transformation of LexA plasmids into the yeast strain YM4271 following the instructions in the […] manual (CLONTECH).
as §1

A further assay concerns the target T3, JIP-1 (mouse, UniProt Q9WVI9 1-707).
T3 construct: Yeast two-hybrid prey clone; also called meg11
T3 sequence: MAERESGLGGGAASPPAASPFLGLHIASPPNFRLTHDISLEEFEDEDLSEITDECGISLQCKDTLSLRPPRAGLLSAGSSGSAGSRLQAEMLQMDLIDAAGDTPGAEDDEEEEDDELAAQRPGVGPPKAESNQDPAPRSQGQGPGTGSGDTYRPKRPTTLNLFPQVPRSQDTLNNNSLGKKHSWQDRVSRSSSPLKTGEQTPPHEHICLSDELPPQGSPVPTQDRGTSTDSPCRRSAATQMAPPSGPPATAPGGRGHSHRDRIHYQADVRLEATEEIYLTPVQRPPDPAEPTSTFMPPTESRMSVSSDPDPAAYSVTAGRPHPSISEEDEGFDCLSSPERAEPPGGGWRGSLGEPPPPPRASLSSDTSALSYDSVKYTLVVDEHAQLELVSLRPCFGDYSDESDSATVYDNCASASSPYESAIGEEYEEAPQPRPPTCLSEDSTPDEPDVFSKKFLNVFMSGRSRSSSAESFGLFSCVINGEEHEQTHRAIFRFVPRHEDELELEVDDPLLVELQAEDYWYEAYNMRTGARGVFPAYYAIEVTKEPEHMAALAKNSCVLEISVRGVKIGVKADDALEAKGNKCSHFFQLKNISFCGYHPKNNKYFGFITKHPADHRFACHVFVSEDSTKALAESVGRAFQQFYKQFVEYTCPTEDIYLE
Nature of the assay: yeast two-hybrid, LexA tail bait against prey. The procedure:
as §2, §1

T2 sequence (Q62108 whole entry): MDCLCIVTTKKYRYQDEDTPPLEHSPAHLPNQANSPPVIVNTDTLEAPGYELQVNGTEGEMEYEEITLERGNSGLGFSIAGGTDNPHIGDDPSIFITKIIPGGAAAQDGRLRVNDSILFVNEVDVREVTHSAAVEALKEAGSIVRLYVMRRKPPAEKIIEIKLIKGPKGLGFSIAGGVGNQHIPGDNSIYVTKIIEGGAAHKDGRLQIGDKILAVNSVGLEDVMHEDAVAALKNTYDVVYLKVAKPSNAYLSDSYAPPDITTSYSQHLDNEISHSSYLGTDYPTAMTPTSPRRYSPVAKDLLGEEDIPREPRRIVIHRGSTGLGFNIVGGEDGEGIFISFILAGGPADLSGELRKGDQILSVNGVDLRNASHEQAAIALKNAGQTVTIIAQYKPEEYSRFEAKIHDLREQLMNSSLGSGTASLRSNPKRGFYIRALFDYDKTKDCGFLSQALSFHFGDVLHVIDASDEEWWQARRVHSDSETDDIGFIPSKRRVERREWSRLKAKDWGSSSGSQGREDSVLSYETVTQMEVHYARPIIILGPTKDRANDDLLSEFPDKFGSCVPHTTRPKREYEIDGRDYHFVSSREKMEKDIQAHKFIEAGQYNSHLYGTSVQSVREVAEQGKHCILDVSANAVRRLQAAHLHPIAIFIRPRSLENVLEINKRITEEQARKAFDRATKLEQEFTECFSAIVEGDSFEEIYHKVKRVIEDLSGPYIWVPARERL

B1: LRPA, part of the LRP cytoplasmic tail, LexA fusion protein (LRPA human) (receptor, not shown: large carriers)
chain: VQGAKGFQHQRMTNGAMNVEIGNPTYKMYEGGEPDDVG
notes: LexA fusion bait of the two-hybrid assay
With B1, the binding result in assay [1] is reported as “no binding”.

B2: ApoER2 cytoplasmic tail without its alternatively spliced insert, LexA fusion protein (ApoER2- mouse) (receptor, not shown: large carriers)
chain: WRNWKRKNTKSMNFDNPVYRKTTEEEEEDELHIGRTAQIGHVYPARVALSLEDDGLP
notes: LexA fusion bait of the two-hybrid assay; also called the tail without this insert
As to B2, the binding result in the assay with PSD-95 and with JIP-1 was “no binding” each time.

B3: MegC, part of the Megalin cytoplasmic tail, LexA fusion protein (MegC human) (receptor, not shown: large carriers)
chain: GSPINPSEIVPETNPTSPAADGTQVTKWNLFKRKSKQTTNFENPIYAQMENEQKESVAATPPPSPSLPAKPKPPSRRDPTPTYSATEDTFKDTANLVKEDSEV
notes: as for B1
On to B3, for which, in assay [1], the binding result is given as “no binding”.

B4: ApoER2 cytoplasmic tail with its alternatively spliced insert, LexA fusion protein (ApoER2+ mouse) (receptor, not shown: large carriers)
chain: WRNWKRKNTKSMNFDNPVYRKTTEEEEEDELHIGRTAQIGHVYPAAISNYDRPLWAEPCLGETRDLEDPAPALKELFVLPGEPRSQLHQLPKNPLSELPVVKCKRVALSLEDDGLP
notes: LexA fusion bait of the two-hybrid assay; also called the ApoER2 tail containing the alternatively spliced insert
Turning to B4, the binding result in the assay with PSD-95 is listed as “binds”.

B5: MegB, part of the Megalin cytoplasmic tail, LexA fusion protein (MegB human) (receptor, not shown: small tags and cut ends)
chain: SARDSAVKVVQPIQVTVSENVDNKNYGSPINPSEIVPETNPTSPAADGTQVTKWNLFKRKSKQTTNFE
notes: WARNING: the listing's entry 129 (76 residues) begins like the LRP entries 130 and 132, while entry 131 (68 residues) is a stretch of the Megalin entry 127; entries 129 and 131 look exchanged, so MegB is probably entry 131
In the case of B5, in assay [1], the binding result is recorded as “no binding”.
